In patent US20190248900A1 (Y BIOLOGICS, published 2019):

T1: rat PD1 protein (rat, UniProt D3ZIN8 25-169)
T1 construct: also called rat PD-1 proteins
T1 sequence: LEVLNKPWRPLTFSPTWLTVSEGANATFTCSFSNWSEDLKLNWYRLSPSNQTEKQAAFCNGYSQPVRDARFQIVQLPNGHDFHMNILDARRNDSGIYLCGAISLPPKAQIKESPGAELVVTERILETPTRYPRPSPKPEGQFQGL


How the values were obtained:
PD1-hFc [1] = biological target: T2, PD1-hFc (human, UniProt Q15116 25-170); assay: SPR ProteOn XPR36, PD1-hFc immobilised, antibody as analyte
T2 construct: extracellular domain; also called PD1-hFc protein; Human PD-1-Fc (S1420, Y-Biologics)
Description: (§1) A ProteOn XPR36 (BioRad) instrument was used. The GLC sensor chip (BioRad) was mounted on the instrument and washed with PBST buffer, and the carboxymethyldextran surface was activated with an EDC/sulfo-NHS mixed solution. PD1-hFc dissolved at a concentration of 5 ug/ml in a 10 mM sodium acetate buffer solution (pH 5.0) was injected and immobilized on the GLC sensor chip.
(§2) In order to deactivate the activated carboxyl groups that remain unreacted with the PD1 protein, 1 M ethanolamine was flowed and 10 mM glycine (pH 2.0) was injected in order to wash proteins that remain unbound to the sensor chip.
(§3) The equilibrium dissociation constant (KD) was calculated by plotting and fitting the sensogram data in the equilibrium state depending on concentration.

[2] = biological target: T3, human PD-1 (NM_005018.2) over-expressed on cells (human, UniProt Q15116 25-288); assay: flow cytometry on cells over-expressing human PD-1, fit of Geometric Mean
T3 construct: whole, on cells; also called human PD-1 over-expressed on the cell surface; Jurkat cell line highly expressing human PD-1

[3] = biological target: T3, human PD-1 (NM_005018.2) over-expressed …; assay: flow cytometry, 18 nM, over IgG
PD1-hFc [4] = biological target: T2, PD1-hFc; assay: SPR ProteOn XPR36, PD1-hFc immobilised, antibody as analyte; parent antibody, Example 4 text (FIG. 9), not the Table 12 run
Description: as §1, §2, §3

monkey PD1 protein = biological target: T4, monkey PD1 protein (monkey); assay: SPR ProteOn XPR36; format for monkey PD1 not described
T4 construct: also called monkey PD-1 proteins

PD1-hFc [5] = biological target: T2, PD1-hFc; assay: competition ELISA: PD1-Fc coated, PDL1-His as binder, antibody as competitor
Description: (§4) Human PD-1-Fc (S1420, Y-Biologics) or PD-L2-Fc (#10292-H02H, Sino) was added to wells of a 96-well immuno microplate (#439454, Thermo) and then washed three times with PBS containing 0.05% tween-20 (#P9416, Sigma-Aldrich), followed by allowing to stand in a cleaning solution containing 4% skim milk (#232120, Becton, Dickinson and Company) at room temperature for 1 hour to block non-specific binding. […] After the resulting product was subjected to the same washing method as above, the anti-Biotin-His antibody (#MA1-21315-BTIN, Thermo) diluted to 1:2000 was added to the well of the microplate, allowed to react at room temperature for 1 hour, streptavidin poly-HRP antibody (#21140, Pierce) diluted to 1:5000 was added to the well of microplate, reacted at room temperature for 1 hour and then washed in the same manner. 100 ul of a TMB substrate solution (#T0440, Sigma-Aldrich) was added to the reaction product, light was shielded, and the reaction product was allowed to stand at room temperature for 3 minutes, 50 μL of 2.5 M sulfuric acid (#S1478, Samchun) was added to stop the reaction, and absorbance was measured at 450 nm using a spectrophotometer (*GM3000, Glomax® Discover System Promega).

[6] = biological target: T5, PD-1-His (S1352, Y-Biologics) (UniProt Q15116 25-170, limits assumed); assay: competition ELISA: PD-L2-Fc coated, PD-1-His as binder, antibody as competitor
T5 construct: not shown: His tag
Description: as §4

PD1-hFc [7] = biological target: T2, PD1-hFc; assay: ProteOn XPR36; legend names PD1-hFc, the sheet names the immobilised protein PD-1 C-his
rat PD1 protein = biological target: T1, rat PD1 protein; assay: SPR ProteOn XPR36; format for rat PD1 not described
[8] = biological target: T3, human PD-1 (NM_005018.2) over-expressed …; assay: cell-based or functional assay

Binder | Kd (PD1-hFc [1]) | koff (PD1-hFc [1]) | kon (PD1-hFc [1]) | Bmax [2] | Kd [2] | Fold [3] | Kd (PD1-hFc [4]) | Kd (monkey PD1 protein) | koff (monkey PD1 protein) | kon (monkey PD1 protein) | IC50 (PD1-hFc [5]) | IC50 [6] | Kd (PD1-hFc [7]) | koff (PD1-hFc [7]) | Kd (rat PD1 protein) | koff (rat PD1 protein) | kon (rat PD1 protein) | EC50 [8]
PD1-49A2 (antibody, V domains shown, scFv-phage in the screening ELISA; whole IgG in the other assays; also called Parent 49A2) VH: QVQLVESGGGVVQPGRSLRLSCAASGFTFSSYAMHWVRQAPGKGLEWVAVISYDGSNKYYADSVKGRFTISRDNPKNTLYLQMNSLRAEDTAVYYCTTTTFDSWGRGTLVTVSS VL: DIVMTQSPLSLPVTPGEPASISCRSSQSLFDSDDGNTYLDWYLQKPGQSPQLLIYTLSHRASGVPDRFSGSGSGTDFTLKISRVEAEDVGIYYCLQRMGFPYTFGQGTKVEIK | 0.237 nM | 9.37e-05 s⁻¹ | 395000 M⁻¹ s⁻¹ | 3000 | 38.2 nM | 222 | 0.019 nM | 0.001 nM | 1e-07 s⁻¹ | 168000 M⁻¹ s⁻¹ | 3.92 nM | 59.7 nM |  |  |  |  |  | 
PD1-45D6 (antibody, V domains shown, scFv-phage in the screening ELISA; whole IgG in the other assays) VH: QVQLVESGGGVVQPGRSLRLSCAASGFTFSSYAMHWVRQVPGKGLEWVAVISYDGNDKYYADSVKGRFTISRDNSKNTLYLQMNSLRAEDTAVYYCVPTTFEYWGQGSQVTVSS VL: DIVMTQTPLSLPVTPGEAASISCRSSQSLLDSDDGKTYLDWYLQKPGQSPQLLIYTLSYRASGVPDRFSGSGSGTEFNLRISRVEAEDVGIYYCMQRVEFPFTFGQGTKLDIK |  |  | 270000 M⁻¹ s⁻¹ | 1640 | 2.7 nM | 286 |  | 0.001 nM | 1e-07 s⁻¹ | 154000 M⁻¹ s⁻¹ | 3.72 nM | 49.6 nM | < 0.001 nM | < 1.07e-07 s⁻¹ | 2.39 nM | 0.000133 s⁻¹ | 55400 M⁻¹ s⁻¹ | 1.88 nM
